Source: IntAct's records for PubMed 17981123

B1: Serine endoprotease DegS (Escherichia coli (strain K12)), P0AEE3 (parent)
chain: MFVKLLRSVAIGLIVGAILLVAMPSLRSLNPLSTPQFDSTDETPASYNLAVRRAAPAVVNVYNRGLNTNSHNQLEIRTLGSGVIMDQRGYIITNKHVINDADQIIVALQDGRVFEALLVGSDSLTDLAVLKINATGGLPTIPINARRVPHIGDVVLAIGNPYNLGQTITQGIISATGRIGLNPTGRQNFLQTDASINHGNSGGALVNSLGELMGINTLSFDKSNDGETPEGIGFAIPFQLATKIMDKLIRDGRVIRGYIGIGGREIAPLHAQGGGIDQLQGIVVNEVSPDGPAANAGIQVNDLIISVDNKPAISALETMDQVAEIRPGSVIPVVVMRDDKQLTLQVTIQEYPATN
partner: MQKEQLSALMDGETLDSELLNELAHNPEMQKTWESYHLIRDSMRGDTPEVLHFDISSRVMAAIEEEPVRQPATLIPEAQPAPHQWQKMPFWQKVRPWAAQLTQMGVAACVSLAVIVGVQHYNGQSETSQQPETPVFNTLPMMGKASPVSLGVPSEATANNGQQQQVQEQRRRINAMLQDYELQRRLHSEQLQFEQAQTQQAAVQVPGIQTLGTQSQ

Variants of: B1
Settings: with rsea_ecoli rseA

| Variant | effect of a mutation on the interaction |
| --- | --- |
| Y162F | decreasing interaction |
| Y162A | disrupting interaction |
| D122A | decreasing interaction |
| R178A | decreasing interaction |
| K243D | increasing interaction |
| E227A | increasing interaction |

Next, values leading:

| effect of a mutation on the interaction | Variant |
| --- | --- |
| increasing interaction | D320A |
| increasing interaction | R256A |
| decreasing interaction | R256D |
